This is an account of results in patent US20260207725A1.

The assay addresses wild-type Pfs48/45 D3 (6C domain), glycosylated (Plasmodium falciparum) (UniProt Q8I6T1).
Sequence of UniProt Q8I6T1 (Q8I6T1 291-428, tags left off): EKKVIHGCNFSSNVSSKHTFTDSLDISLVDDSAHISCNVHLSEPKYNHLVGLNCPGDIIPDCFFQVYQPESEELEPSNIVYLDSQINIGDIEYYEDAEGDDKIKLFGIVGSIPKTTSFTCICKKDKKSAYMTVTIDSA

As for “TB31F neutralizing monoclonal antibody (humanized version of mAb 85RF45.1) (from UniProt P0DOY2 1-106)”, the dissociation constant (Kd) (as a rule, the concentration at which binding is half-saturated) was determined as 2.5 nM; the koff – broadly, the rate constant with which the complex falls apart – turned out to be 0.00082 s⁻¹; the on-rate constant (kon) (usually the second-order rate constant of association) was 350000 M⁻¹ s⁻¹.
